In US20230357323A1, “HUMAN IL23 RECEPTOR BINDING POLYPEPTIDES” (University of Washington, priority 2020, published 2023):
pKd: −log10 of the molar value. Where two headings read alike, the source gives them in different places.

What was measured:
[1] = Proteolytic stability in simulated intestinal fluid (SIF), SDS PAGE; format: in vitro ADME; conditions: for SIF t1/2: pH 6.5
From the text: (§1) While resistance to high heat is important for manufacturing and storage, and resistance to chemical denaturant is a good proxy for stability overall, any oral, gut-restricted IL-23R inhibitor will preferably survive the harsh conditions of the gastrointestinal tract, including high acidity and physiological proteases, to reach the site of action intact. To determine feasibility of oral administration, we therefore more directly assessed the stability of our designed IL-23R inhibitors in simulated gastric fluid (SGF), including the protease pepsin at pH 2, and simulated intestinal fluid (SIF), including proteases trypsin and chymotrypsin at pH 6.5. Proteolysis was assessed qualitatively by SDS PAGE at timepoints up to 24 hours.
Several reported formulations of simulated intestinal fluid show variable proteolytic activity, and protease activity of human intestinal fluid has not been thoroughly studied. Therefore, as a benchmark for SIF stability, we directly compared our designs to V565-38F, an oral, gut-restricted nanobody inhibitor of TNFa currently in a phase 2 clinical trial for Crohn's disease, in SIF with enzyme concentrations sufficient to degrade this molecule over 24 hours. Design variants with proteolytic stability greater than or equal to V565-38F are likely to be sufficiently stable to enable oral therapy.
(§2) Simulated intestinal fluid (SIF) was prepared as recommended by Jantratid et al. (termed FaSSIFv2) with the addition of proteases trypsin and chymotrypsin each at 30 μg/mL.^18 This composition is denoted as “1x SIF” in the text. In some instances, designed proteins (pure recombinant protein, or yeast libraries as above) or the comparator V565-38F were so stable that minimal degradation could be detected at the maximum duration (24 hours for SDS PAGE experiments, 90 minutes for cytometry experiments). Therefore, we increased the concentrations of both trypsin and chymotrypsin to increase the rate of digestion; these solutions are denoted as “#x SIF”, where for example “2x SIP” denotes a 2-fold increase in concentration of both trypsin and chymotrypsin (to 60 μg/mL), Simulated gastric fluid was prepared as follows: 600 ug/mL pepsin and 34.2 mM NaCl in water, with […] added to adjust pH to 2.
For qualitative assessment of proteolytic stability, pure recombinant proteins were digested at 37° C. for 24 hours and proteolytic cleavage assessed by SDS PAGE. From concentrated stock solutions, recombinant proteins were added to stock SGF and SIF solutions to a final concentration of 0.1 mg/mL. Timepoints were taken at 0, 5, 15, 30, 60 minutes, 4 and 24 hours; at each timepoint, samples were removed and immediately mixed with load dye and boiled for 5 minutes at 95° C. to quench protease activity. 5 ug protein (based on initial digest concentration of 0.1 mg/mL) per timepoint were run on 16% Tris-tricine polyacrylamide gels.

IL-23R [2] = target: T1, IL-23R (Homo sapiens, UniProt Q5VWK5); test: Surface plasmon resonance (SPR) binding affinity to hIL-23R; set-up: his tag (C); purchased
T1 sequence (Q5VWK5 24-629): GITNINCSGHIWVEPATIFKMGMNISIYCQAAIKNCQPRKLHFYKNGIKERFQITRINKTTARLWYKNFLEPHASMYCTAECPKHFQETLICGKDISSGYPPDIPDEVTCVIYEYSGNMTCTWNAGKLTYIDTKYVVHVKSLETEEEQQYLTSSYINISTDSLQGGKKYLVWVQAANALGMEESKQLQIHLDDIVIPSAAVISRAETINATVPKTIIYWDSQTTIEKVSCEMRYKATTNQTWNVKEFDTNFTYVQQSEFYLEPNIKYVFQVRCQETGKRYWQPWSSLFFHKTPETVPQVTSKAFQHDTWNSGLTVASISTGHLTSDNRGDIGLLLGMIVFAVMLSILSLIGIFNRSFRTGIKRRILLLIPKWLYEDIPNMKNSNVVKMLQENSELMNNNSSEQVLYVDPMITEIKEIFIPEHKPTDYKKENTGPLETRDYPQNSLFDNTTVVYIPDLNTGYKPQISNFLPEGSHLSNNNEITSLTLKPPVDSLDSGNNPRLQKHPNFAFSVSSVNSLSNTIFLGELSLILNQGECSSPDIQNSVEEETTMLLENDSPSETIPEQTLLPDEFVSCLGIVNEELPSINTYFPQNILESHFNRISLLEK

[3] = Proteolytic stability in simulated gastric fluid (SGF), SDS PAGE; format: in vitro ADME
From the text: as §1, §2
For qualitative assessment of proteolytic stability, pure recombinant proteins were digested at 37° C. for 24 hours and proteolytic cleavage assessed by SDS PAGE. From concentrated stock solutions, recombinant proteins were added to stock SGF and SIF solutions to a final concentration of 0.1 mg/mL. […]

IL-23R [4] = target: T1, IL-23R; test: IL-23-mediated cell signaling assay (Promega IL-23 Bioassay luciferase reporter cells); format: cell-based; conditions: IL-23 reporter assay; C-terminal versus N-terminal 6-histidine tag
Description: FIG. 7. Designed IL-23R inhibitor block IL-23-mediated cell signaling in vitro. Cells engineered to express luciferase downstream of IL-23R (Promega) were pre-incubated for 30 minutes with a titration of each inhibitor, then stimulated with 8 ng/mL human IL-23 cytokine for 6 hours. Luciferase substrate was added, luminescence read, and % inhibition of signaling calculated relative to wells with no inhibitor added. IC50 was calculated using linear regression to fit dose response; values are shown above alongside fold increase in potency relative to a competitor molecule PTG compound C.
Next, we assessed the ability of IL-23R inhibitors to block IL-23-mediated cell signaling. […] IC50 values were determined using linear regression to fit dose response.
Commercial IL-23 reporter cells (Promega IL-23 Bioassay) expressing luciferase downstream of IL-23R were used to assess inhibition of IL-23-mediated cell signaling. Cells were plated in the inner wells of 96-well tissue culture treated white plates suitable for reading luminescence. Cells were pre-incubated for 30 minutes with a dilution series of each inhibitor, then treated with the EC80 stimulatory concentration of recombinant human IL-23 cytokine determined in preceding experiments (8 ng/mL; R&D 1290-IL). After 6 hours incubation with human IL-23, luciferase substrate was added and luminescence read. […]

human IL-23R (hIL-23R) = target: T2, human IL-23R (hIL-23R) (Homo sapiens, UniProt Q5VWK5); test: Biolayer interferometry (BLI) binding to hIL-23R; conditions: biolayer interferometry binding titrations; read-out: affinity (KD) for hIL-23R
T2 construct: his tag (C); purchased
T2 sequence (Q5VWK5 24-629): T1 sequence (Q5VWK5 24-629)
From the text: Two designs, 23R_A (SEQ ID NO:10) and 23R_B (SEQ ID NO:110), were highly enriched in the final selection pool and were chosen for further biochemical characterization. Both designs are 3-helix bundles (54 and 53 residues, respectively) which incorporate the native Trp hotspot at the N-terminal end of a helix such that IL-23R residue D118 forms a helix-capping hydrogen bond with the Trp hotspot's free backbone amine, similar to the αD helix of p19 (FIG. 1D). In both designs, this central binding helix has a larger interaction surface with hIL-23R, mediated by additional de novo hotspots, than p19. […]
Variants were first screened for relative binding to hIL-23R with biolayer interferometry (BLI). hIL-23R was immobilized on the BLI sensor tips and binding to each variant in solution at a constant concentration (50 nM) was measured to qualitatively determine relative performance of the variants. For the best-performing variants, binding constants (KD, including kon, and koff) were quantitatively determined with BLI titration experiments in triplicate. […]
Qualitative and quantitative assessment of binding affinity was performed using biolayer interferometry (ForteBio Octet™ […] and associated software for analysis). […] Kinetic constants were determined from the mathematical fit of a 1:1 binding model.

[5] = trypsin and chymotrypsin, 37° C., SDS PAGE

**Q.** Which “SIF t1/2” value ([1]; simulated gi fluid) does the source give for “MEPEKYLRELCKKYYEGKLSQQEAVEEIRKYARKKGLEAWKLVWYFMQCVKRDI [rA11dslf02]” here?
**A.** The value was 60 min.

**Q.** With “PEPEKYLQELCKKYYEGKLSQQEAVEEIRKYARKWGLEAWKLVWYFMQCVKRDI [rA11dslf02_M1P_R8Q_K35W]” as the substance, how does the pKd (IL-23R [2]) read?
**A.** Its pKd is 10.12.

**Q.** And the “stability in SGF compared to V565-38F” value ([3]; SGF)?
**A.** Its value is “much more stable”.

**Q.** And the “stability in SIF compared to V565-38F” value ([1]; SIF with enzyme concentrations sufficient to degrade V565-38F over 24 hours (3x SIF))?
**A.** The value was “similarly stable”.

**Q.** And the “SIF t1/2” value [1, 5]?
**A.** The value was 240 to 1440 min.

**Q.** With “PLWQVFYLLNTCIKRTGDPTCKKLAKALRECLKKGDLKACNELADKAVKYINS [B04dslf02IB]” as the substance, how does the “effect of C-terminal 6-histidine tag on potency” value (IL-23R [4]) read?
**A.** The value was “no effect on potency”.

**Q.** And the pKd (IL-23R [2])?
**A.** The pKd was greater than 12.00.

**Q.** And the “effect of C-terminal 6-histidine tag on proteolytic stability” value ([1]; SGF or SIF up to 24 hours, C-terminal versus N-terminal 6-histidine tag)?
**A.** Its value is “greatly enhances the proteolytic stability”.

**Q.** What about the “SIF t1/2” value [1, 5] of the same substance?
**A.** The value was 30 to 60 min.

**Q.** With “mB09dslf01-T48I: best mIL-23R inhibitor after optimization for stability and mIL-23R affinity; T48I variant of mB09dslf01; no SEQ ID given (NLWQIFYCLLTCIKRTGDPTCKKLLKALQEAVKKNDEKAVKELAKKAIKYCRSHHHHHH)” as the substance, how does the “stability in SGF compared to V565-38F” value [3] read?
**A.** The value was “more stable”.

**Q.** What about the “SGF t1/2” value ([3]; simulated gi fluid, pH 2) of the same substance?
**A.** The value was “greater than 24 hours”.

**Q.** And the “3x SIF t1/2” value ([1]; simulated gi fluid)?
**A.** Its value is “greater than 24 hours”.

**Q.** With “IL-23 cytokine: native ligand; heterodimeric cytokine composed of the p19 subunit and the p40 subunit” as the substance, how does the pKd (human IL-23R (hIL-23R)) read?
**A.** The pKd was 8.77.

**Q.** Which “SIF t1/2” value [1, 5] does the source give for “NLWQIFYLLNTCIKRTGDPTCKKLKKALRECEKKGDEKACKELAKKAMKYIRS (NLWQIFYLLNTCIKRTGDPTCKKLKKALRECLKKGDEKACKELAKKAMKYIRS) [B04dslf02]” here?
**A.** Its value is 5 to 15 min.
